Data on two molecules can be found in patent publication US20100254982A1 (VIVENTIA BIOTECHNOLOGIES, published 2010).

In test [1] the target is Glucose transporter 8 (GLUT8), cancer-associated variant expressed on the surface of cancer cells (VB1-050 antigen) (human) (UniProt Q9NY64). The test can be described thus: cell-based or functional assay.
For test [2] the target is unchanged. The test can be described thus: flow cytometry saturation curve on antigen-positive cells.
Test [3] has as its target T1, Glucose transporter 8 (GLUT8), cancer-associated variant expressed on the surface of cancer cells (VB1-050 … (human, UniProt Q9NY64 1-477)).
T1 construct: whole, on cells; Endogenous antigen of human tumor cell lines, identified by immunoprecipitation with VB1-050 and mass spectrometry from HepG2 and MCF-7 membranes; Only L12A and L13A are printed with old and new residues; In the immunoprecipitations the membrane preparations were deglycosylated with N-Glycanase; also called VB1-050Ag; VB1-050 Ag
T1 sequence (looked up): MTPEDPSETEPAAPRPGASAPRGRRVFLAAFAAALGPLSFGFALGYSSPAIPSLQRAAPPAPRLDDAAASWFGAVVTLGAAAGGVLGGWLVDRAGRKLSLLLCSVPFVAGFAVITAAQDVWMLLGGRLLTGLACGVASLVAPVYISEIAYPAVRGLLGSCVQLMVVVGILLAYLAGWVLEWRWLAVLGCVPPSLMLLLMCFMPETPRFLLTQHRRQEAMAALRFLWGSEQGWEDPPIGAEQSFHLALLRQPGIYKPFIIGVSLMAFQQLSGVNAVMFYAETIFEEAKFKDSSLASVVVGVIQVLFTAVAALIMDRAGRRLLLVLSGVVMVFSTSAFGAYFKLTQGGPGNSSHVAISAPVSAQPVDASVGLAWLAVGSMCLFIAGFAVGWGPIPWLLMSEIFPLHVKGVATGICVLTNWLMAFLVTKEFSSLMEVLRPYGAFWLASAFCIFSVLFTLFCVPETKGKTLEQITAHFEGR
As to the kind of experiment: flow cytometry, cervix tumor cell lines HeLa, C-41, C-33A (mean of 3). Background: A flow cytometer gives signals particle by particle.

For test [4], the target named is T1, Glucose transporter 8 (GLUT8), …. The test can be described thus: flow cytometry on A-375 cells, surface-bound antibody left after 60 min at 37 °C (internalization experiment).
The target is the same in test [5]. The test can be described thus: flow cytometry, kidney tumor cell lines Caki-1, A498, ACHN (mean of 3).
For test [6] the target is unchanged. As to the kind of experiment: flow cytometry, pancreas tumor cell lines PANC-1, BxPC-3, MIA PaCa-2 (mean of 3).
Test [7] shares this target. The test can be described thus: flow cytometry, ovarian tumor cell lines SK-OV-3, OVCar-3 (mean of 2).
Test [8] shares this target. The test can be described thus: flow cytometry, breast tumor cell lines MCF-7, MDA-MB-231, MDA-MB-435S (mean of 3).
The target is the same in test [9]. The test can be described thus: flow cytometry, normal kidney cell line HRE.
The target is the same in test [10]. As to the kind of experiment: flow cytometry competition on antigen-positive cells; competitor VB6-050 fixed at 250 µg/mL, detected with anti-bouganin antibody.
Test [11] shares this target. The test can be described thus: flow cytometry, bladder tumor cell lines UM-UC-3, T24 (mean of 2).
Test [12] shares this target. The test can be described thus: flow cytometry, stomach tumor cell lines AGS, NCI-N-87, KATO III (mean of 3).
For test [13] the target is unchanged. The test can be described thus: flow cytometry, head & neck tumor cell lines SCC-15, SCC-25 (mean of 2).
Test [14] has the same target. The test can be described thus: flow cytometry, normal breast cell line HMEC.
Test [15] has the same target. As to the kind of experiment: flow cytometry, prostate tumor cell lines DU-145, PC-3, LNCaP (mean of 3).
The target is the same in test [16]. The test can be described thus: flow cytometry, melanoma cell lines A-375, SK-MEL-5, SK-MEL-28 (mean of 3).
For test [17] the target is unchanged. The test can be described thus: flow cytometry on A-375 cells, surface-bound antibody left after 120 min at 37 °C (internalization experiment).
The target is the same in test [18]. The test can be described thus: flow cytometry, normal prostate cell line PrEC.
The target is the same in test [19]. The test can be described thus: flow cytometry, lung tumor cell lines A-549, NCI-H460, NCI-H69 (mean of 3).
For test [20] the target is unchanged. The test can be described thus: flow cytometry, liver tumor cell lines SK-HEP-1, Hep-G2 (mean of 2).
The target is the same in test [21]. The test can be described thus: flow cytometry, normal endothelial cell line HUVEC.
Test [22] has the same target. The test can be described thus: flow cytometry, normal lung cell line NHLF.
Test [23] has the same target. The test can be described thus: flow cytometry, endometrium tumor cell lines RL-95-2, HEC-1-A (mean of 2).
For test [24] the target is unchanged. As to the kind of experiment: flow cytometry, rectum tumor cell lines Sw837, NCI-H630 (mean of 2).
Test [25] shares this target. The test can be described thus: flow cytometry on A-375 cells, cells kept on ice for 120 minutes; above negative control human IgG (4B5).
The target is the same in test [26]. The test can be described thus: flow cytometry titration on A-375 cells, Lineweaver-Burk method.
The target is the same in test [27]. The test can be described thus: flow cytometry, colon tumor cell lines HT-29, SW480, WiDr (mean of 3).

B1: VB6-050 (soluble Fab-de-bouganin fusion protein derived from VB1-050) (Fab, V domains shown)
VH: EVQLLESGGDLVQPGGSLRLSCAASGFTFSNYAMSWVRQAPGKGLEWVSAITPSGGSTNYADSVKGRFTISRDNSQNTLYLQMNSLRVEDTAVYYCGRVPYRSTWYPLYWGQGTLVTVSS
VL: DIQMTQSPSSLSASVGDRVTITCRASQDISNYLAWFQRKPGKAPKSLIYAASSLHSKVPTQFSGSGSGTDFTLTISSLQPEDFATYYCLQYSTYPITFGGGTKVEIK
As to B1, the IC50 (MTS cytotoxicity assay, 5 days, antigen-positive cells MB-435S) in test [1] worked out at 400 nM. Also, the saturation point in [2] amounted to 250 µg/mL.

B2: VB1-050 monoclonal antibody (antibody, V domains shown)
VH: EVQLLESGGDLVQPGGSLRLSCAASGFTFSNYAMSWVRQAPGKGLEWVSAITPSGGSTNYADSVKGRFTISRDNSQNTLYLQMNSLRVEDTAVYYCGRVPYRSTWYPLYWGQGTLVTVSS
VL: DIQMTQSPSSLSASVGDRVTITCRASQDISNYLAWFQRKPGKAPKSLIYAASSLHSKVPTQFSGSGSGTDFTLTISSLQPEDFATYYCLQYSTYPITFGGGTKVEIKR
notes: also called VB1-050 IgG; parental IgG
For the molecule B2, the “MF (mean fold increase in median fluorescence over control antibody)” value worked out at 11.8 fold in test [3]; 18.4 fold in [5]; 7.6 fold in test [6]; 21.7 fold in [7]; 29.9 fold in test [8]; 12.5 fold in test [9]. Besides, the “MF (mean fold increase in median fluorescence over control antibody)” value in test [11] came to 9.8 fold; in [12], 9.6 fold; in test [13] it was 11.4 fold; in test [14], 3.1 fold; in test [15], 19.6 fold; in test [16], 22.7 fold. The “MF (mean fold increase in median fluorescence over control antibody)” value in [18] turned out to be 2.1 fold; in test [19], 14.8 fold; in test [20], 14.6 fold; in test [21], 5 fold; in [22], 8.7 fold; in test [23] it was 7 fold. The “MF (mean fold increase in median fluorescence over control antibody)” value in [24] is 15.2 fold; in [27] it was 13.3 fold. Moreover, the “Fold-increase in MF” value in test [4] turned out to be 49.2 fold; in test [17], 39.3 fold; in [25], 129 fold. Besides, in test [10], the IC50 amounted to 180 µg/mL. The same molecule returned a Kd in test [26] of 49 nM.

The term IC50 denotes the concentration at which inhibition is half-maximal. Low values mean inhibition by little substance, high ones a need for much substance. What is called Kd is the concentration at which binding is half-saturated. Read a high Kd as lower affinity.
